# Publication doi:10.1101/2024.12.16.628704
# Key:
# [1] = molecular target: sialylated IgG1 V11 (G237D, P238D, H268D, P271G, A330R) Fc (human); test: SPR
# [2] = molecular target: sialylated IgG1 GA (G236A) Fc (human); test: SPR
substance,measurement,setting,value
"FcγRIIB (CD32b), as used in SPR with Fc proteins (from UniProt P31994 43-310) (receptor)",fold change in affinity against WT sFc,[1],37 fold
FcγRIA (CD64) (from UniProt P12314 16-374) (receptor),fold weaker affinity against WT sFc,[1],193 fold
"FcγRIIA (CD32a), variant not named in the sentence (from UniProt P12318 34-317) (receptor)",fold change in affinity against WT sFc,[2],10 fold
